Read-outs that look alike come from different tables or passages of the source.

The target in assay [1] is T1, human PD-1-hFc (human, UniProt Q15116 25-170).
T1 construct: extracellular domain; Extracellular domain of human PD-1 fused to an hFc tag, made in house; not shown: hFc tag
Put plainly: ELISA, coated human PD-1-hFc. Here is the method:
(§1) In order to verify the binding affinity of murine anti-PD-1 antibody to human PD-1-hFc and monkey PD-1-hFc, ELISA was used. The specific experimental steps are as follows: human PD-1-hFc and monkey PD-1-hFc were diluted to 1 μg/mL with CBS solution, and then coated on a 96-well ELISA plate (purchased from Guangzhou Jiete Bio) at 4° C. overnight. […] After washing, a goat anti-mouse secondary antibody (FC) labeled with horseradish peroxidase diluted in phosphate buffer (PBS) containing 2% BSA in a ratio of 1:15000 was added, followed by incubating at 37° C. for 1 hour. After washing, the TMB chromogen solution was used for developing, and the absorbance value was read using a microplate reader at 450 nm. The data were imported into Graphprism to calculate the EC₅₀ value.
Background: ELISA stands for enzyme-linked immunosorbent assay.

Assay [2] concerns the target T1, human PD-1-hFc. Put plainly: competitive ELISA, coated human PD-1-hFc, competitor biotinylated PD-L1-mFc. The procedure:
(§2) The specific experimental steps were as follows: human PD-1-hFc antigens were diluted to 1 μg/mL with CBS solution, then coated on a 96-well ELISA plate (purchased from Guangzhou Jiete Bio) at 4° C. overnight. […] After washing, streptavidin labeled with horseradish peroxidase diluted in phosphate buffer (PBS) containing 2% BSA in a ratio of 1:15000 was added, followed by incubating at room temperature for 1 hour. After washing, the TMB chromogen solution was used for developing, and the absorbance value was read using a microplate reader at 450 nm, and the data were imported into Graphprism to calculate the IC₅₀ value.

Assay [3] concerns the target T2, monkey PD-1-hFc (monkey).
T2 construct: Extracellular domain of monkey PD-1 fused to an hFc tag, made in house; not shown: The hFc tag and any linker
T2 chain: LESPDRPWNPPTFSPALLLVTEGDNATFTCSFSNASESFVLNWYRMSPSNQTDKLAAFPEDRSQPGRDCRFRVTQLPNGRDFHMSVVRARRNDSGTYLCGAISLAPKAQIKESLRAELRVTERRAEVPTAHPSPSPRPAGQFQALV
Put plainly: ELISA, coated monkey PD-1-hFc. Here is the method:
as §1

The target in assay [4] is T3, full-length human PD-1 on CHO-hPD-1 cells (human, UniProt Q15116 25-288).
T3 construct: whole, on cells; also called PD-1 on the cell membrane surface of CHO-hPD-1
Put plainly: flow cytometry on CHO-hPD-1 cells. From the text: (§3) In order to verify the binding of anti-human PD-1 murine antibody to PD-1 on the cell membrane surface, FACS technology was used to detect the affinity between murine antibodies and CHO-hPD-1 cells.
Background: Flow cytometry measures light scatter and fluorescence of single cells or particles in a stream.

Assay [5] has as its target T3, full-length human PD-1 on CHO-hPD-1 …. Put plainly: flow cytometry on CHO-hPD-1 cells, FITC anti-mouse IgG secondary antibody.
Text: as §3

For assay [6], the target named is T1, human PD-1-hFc. Put plainly: competitive ELISA, coated PD-1-hFc, competitor PDL1-mFc. The procedure:
as §2, with “was” for “antigens were”, “solution,” for “solution, then”, “overnight. After washing, 100 μL of phosphate buffer (PBS) containing 2% BSA was used for blocking at 37° C. for 1 hour.” for “overnight.”, “a goat anti-mouse secondary antibody” for “streptavidin”, “HRP” for “horseradish peroxidase”, “ICs values.” for “the IC₅₀ value.”

The target of assay [7] is T3, full-length human PD-1 on CHO-hPD-1 …. Put plainly: competitive FACS on CHO-hPD-1 cells, competitor PD-L1-mFc-Bio. An excerpt:
The data were imported into Graphprism to calculate IC₅₀ values.

Assay [8] concerns the target T4, human PD-1-His (human, UniProt Q15116 25-170).
T4 construct: extracellular domain; not shown: His tag
Put plainly: BLI (Octet ForteBio), antibody on ProA biosensor, human PD-1-His in solution.

Assay [9] has as its target T4, human PD-1-His. Put plainly: ELISA, coated human PD-1-his. Here is the method:
To verify the affinity of the humanized PD-1 antibody to PD-1-His antigen, ELISA was employed. The specific experimental steps were as follows: human PD-1-his was diluted to 1 μg/mL with CBS solution, then coated on a 96-well ELISA plate (purchased from Guangzhou Jiete Bio) at 4° C. overnight. […] After washing, a goat anti-mouse secondary antibody (FC) labeled with horseradish peroxidase diluted in phosphate buffer (PBS) containing 2% BSA in a ratio of 1:15000 was added, followed by incubating at 37° C. for 1 hour. After washing, the TMB chromogen solution was used for developing, and the absorbance value was read using a microplate reader at 450 nm. The data were imported into Graphprism to calculate EC₅₀ values.

Assay [10] addresses T2, monkey PD-1-hFc. Put plainly: ELISA, coated monkey PD-1-hFc. The procedure: as §2, with “human PD-1-hFc and monkey” for “human”, “a goat anti-human secondary antibody (FC)” for “streptavidin”, “37° C.” for “room temperature”, “EC₅₀ values.” for “the IC₅₀ value.”
Assay [11] concerns the target PD-1 on Jurkat-PD-1-NFAT cells (UniProt Q15116 25-288, limits assumed). Put plainly: cell-based or functional assay.
Assay [12] has as its target T1, human PD-1-hFc. Put plainly: competitive ELISA, coated human PD-1-hFc, competitor hPD-L1-mFc. The procedure: as §2, with “was” for “antigens were”, “solution,” for “solution, then”, “overnight. After washing, 100 μL of phosphate buffer (PBS) containing 2% BSA was used for blocking at 37° C. for 1 hour.” for “overnight.”, “a goat anti-mouse secondary antibody” for “streptavidin”, “HRP” for “horseradish peroxidase”, “ICs values.” for “the IC₅₀ value.”

Assay [13] addresses T4, human PD-1-His. Put plainly: BLI (Octet ForteBio), antibody on ProA biosensor, PD-1-His in solution. Background: Biolayer interferometry detects binding as a change in optical thickness at a sensor tip.
Assay [14] addresses T4, human PD-1-His. Put plainly: BLI (Octet ForteBio), human PD-1-His.
In assay [15] the target is T1, human PD-1-hFc. Put plainly: competitive ELISA, coated PD-1-hFc, competitor PDL2-mFc. Here is the method:
as §2, with “was” for “antigens were”, “solution,” for “solution, then”, “overnight. After washing, 100 μL of phosphate buffer (PBS) containing 2% BSA was used for blocking at 37° C. for 1 hour.” for “overnight.”, “a goat anti-mouse secondary antibody” for “streptavidin”, “HRP” for “horseradish peroxidase”, “ICs values.” for “the IC₅₀ value.”

The target in assay [16] is T1, human PD-1-hFc. Put plainly: competitive ELISA, coated human PD-1-hFc, competitor hPD-L2-mFc. Here is the method: as §2, with “was” for “antigens were”, “solution,” for “solution, then”, “overnight. After washing, 100 μL of phosphate buffer (PBS) containing 2% BSA was used for blocking at 37° C. for 1 hour.” for “overnight.”, “a goat anti-mouse secondary antibody” for “streptavidin”, “HRP” for “horseradish peroxidase”, “ICs values.” for “the IC₅₀ value.”

Assay [17] deals with T5, human PD-1-ECD-mFc (human; mouse, UniProt Q15116 25-170).
T5 construct: extracellular domain; Made in HEK293F cells; also called human PD-1-mFc; PD-1-mFc; not shown: mouse Fc (mFc) amino acids, AB097847.1
Put plainly: ELISA, coated antigen (column head: Human PD-1-mFc; text of Example 4.2: human PD-1-hFc). Here is the method: as §2, with “human PD-1-hFc and monkey” for “human”, “a goat anti-human secondary antibody (FC)” for “streptavidin”, “37° C.” for “room temperature”, “EC₅₀ values.” for “the IC₅₀ value.”

T1 sequence (Q15116 25-170): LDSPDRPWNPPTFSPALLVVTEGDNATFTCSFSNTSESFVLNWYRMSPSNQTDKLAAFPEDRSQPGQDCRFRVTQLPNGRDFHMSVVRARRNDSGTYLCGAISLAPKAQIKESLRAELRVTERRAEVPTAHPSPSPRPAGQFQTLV
T4 sequence (Q15116 25-170): as above
T3 sequence (Q15116 25-288): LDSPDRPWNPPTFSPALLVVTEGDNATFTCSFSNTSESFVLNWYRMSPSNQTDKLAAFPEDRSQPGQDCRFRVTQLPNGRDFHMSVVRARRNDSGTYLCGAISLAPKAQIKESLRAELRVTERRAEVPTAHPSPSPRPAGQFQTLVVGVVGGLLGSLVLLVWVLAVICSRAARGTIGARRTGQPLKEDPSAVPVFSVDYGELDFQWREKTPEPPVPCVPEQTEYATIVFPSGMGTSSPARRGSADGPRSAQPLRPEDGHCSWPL
T5 sequence (Q15116 25-170): as the sequence (Q15116 25-170) above
Sequence of PD-1 on Jurkat-PD-1-NFAT cells (Q15116 25-288 limits assumed): as the sequence (Q15116 25-288) above

B1: murine antibody 91D5 (antibody, V domains shown)
VH: EVQLQQSGPELVKPGASVKISCRASGYTFTDYYMNWVKESHGKSLEWIGEINPKYGDTTYNQKFKDKATLTVDKSSSTASVELRSLTSEDSAVYYCAKGIRLFDSWGQGTTVTVSS
VL: DIQLTQSPASLSASVGETVTITCRPSGNVHNYFAWYQQKQGKSPQLLVYNAKTLAEGVPSRFSGSGSGTQYSLKINSLQPEDFGTYYCHHYYTAPFTFGSGTKLEIK
notes: Murine antibody from a hybridoma
As to B1, the results for the EC50 in [1] and in assay [3] were 0.044 nM and 0.0685 nM, respectively. The IC50 (commonly the concentration that inhibits the measured activity by half) in assay [2] worked out at 4.25 nM.

B2: murine antibody 42G1 (antibody, V domains shown)
VH: QVQLKESGAELAKPGASVKMSCEASGYALTSYWMHWVKQGPGQGLEWIGYIHPSTGYTEYNQIFEDKATLSADKSSNTAYMQLTSLTSDDSAVYYCARGAGPYYFDYWGQGTTLTVSS
VL: DIQLTQSPSSLAVSAGEKVIMSCKSSQSLLNSGTRKNYLAWYQQKPGQSPKLLIFWASTRESGVPDRFTGSGSGTDFTLTISSFQAEDLAVYYCKQSYDLITFGPGTKLEIK
notes: Murine antibody from a hybridoma; also called murine PD-1 antibody 42G1
With B2, the EC50 – broadly, the concentration that produces a half-maximal response – in assay [1] came to 0.0513 nM; in assay [3], 0.0595 nM; in assay [4], 6.62 nM. Moreover, in [2], the IC50 was 4.5 nM. In [5], the EC50 (read off the curve) (commonly the concentration needed to bring the measured effect to its halfway point) was ~7 nM.

B3: chimeric antibody 29C6-CH (antibody, human IgG4 S228P, kappa, V domains shown)
VH: QVQLEESGPELVKPGASVKISCKTSGYTFTEYTIYWVKQSHGKSLEWIGGINPKNGATLYNQKFKVKATLTVDKSSSTAYMELRSLTSEDSAVYYCVRDYHGNSHDSMDYWGQGTSVTVSS
VL: QIVLTQSPAIMSASPGEKVTITCSASSSVSYMHWFRQKPGTSPKLWIYYTSNLASGVPAHFSGSGSGTSYSLTISRMEAEDAATYYCQQRSDYPPTFGGGTKLEIKR
notes: Murine 29C6 variable regions fused to the IgG4 (S228P) heavy chain constant region and the human kappa constant region
As for B3, the IC50 was determined as 1.15 nM in assay [6]; 1.7 ng/mL in assay [7]; 1.73 nM in [12]; 1.31 nM in [15]; 1.97 nM in assay [16]. Also, the Kd (in general, the concentration at which binding is half-saturated) in assay [8] was found to be 0.88 nM; in [13], 0.516 nM. Further, the dissociation rate constant (koff) (usually a measure of how fast the partners let go of each other) worked out at 0.000198 s⁻¹ in assay [8] and 0.000166 s⁻¹ in assay [13]. The results for the on-rate (kon) in assay [8] and in assay [13] were 226000 M⁻¹ s⁻¹ and 322000 M⁻¹ s⁻¹, respectively. Also, the figures for the EC50 in assay [9], in assay [10] and in [17] were 0.17 nM, 0.171 nM and 0.115 nM, respectively. Also, in [11], the “EC50 (nM), cell activity for blocking PD-1/PD-L1 binding, luciferase reporter gene assay” value came out at 10.7 nM. The “fold stronger affinity than the control antibody 1” value in assay [14] amounted to 7.3 times.

B4: murine antibody 29C6 (antibody, V domains shown)
VH: B3 VH
VL: QIVLTQSPAIMSASPGEKVTITCSASSSVSYMHWFRQKPGTSPKLWIYYTSNLASGVPAHFSGSGSGTSYSLTISRMEAEDAATYYCQQRSDYPPTFGGGTKLEIK
notes: Murine antibody from a hybridoma; also called murine PD-1 antibody 29C6
For the molecule B4, the half-maximal effective concentration (EC50) in assay [1] was 0.0355 nM; in assay [3] it was 0.0344 nM; in [4], 3.12 nM. In assay [2], this molecule yielded an IC50 of 2.93 nM. The 50% effective concentration (EC50 (read off the curve)) in assay [5] was ~3 nM.

(Values after patent US20240425593A1 (SICHUAN KELUN BIOTECH BIOPHARMACEUTICAL, published 2024).)
